Results taken from patent US20210246166A1 (Bayer, published 2021).
One block for each binder: values may come before it. Bridge positions count the residues as written; N and C are the ends. Square brackets hold non-standard residues; d marks the D form. Ends that are not written are not given here. Pro(cis-4-CF3) = O=C(O)[C@@H]1C[C@H](C(F)(F)F)CN1; Oic = O=C(O)[C@@H]1C[C@@H]2CCCC[C@@H]2N1; tBuAla = CC(C)(C)C[C@H](N)C(=O)O; Chg = N[C@H](C(=O)O)C1CCCCC1; PEG4 = NCCOCCOCCOCCOCCC(=O)O; Pen = CC(C)(S)[C@H](N)C(=O)O; Tranexamic = tranexamic acid; NMeC = CN[C@@H](CS)C(=O)O; NMeA = CN[C@@H](C)C(=O)O; Dab = NCC[C@H](N)C(=O)O; Abu = CC[C@H](N)C(=O)O; Sar = CNCC(=O)O

Experiments:
[1] = target: Recombinant human MASP2 enzyme (fragment corresponding to amino acids 297-686, C-terminal His Tag) (human, UniProt O00187 297-686); assay: cell-based or functional assay
Chain of Recombinant human MASP2 enzyme (fragment corresponding to amino acids 297-686, C-terminal His Tag) (O00187 other isoform, or with tags, fused parts or gaps limits assumed): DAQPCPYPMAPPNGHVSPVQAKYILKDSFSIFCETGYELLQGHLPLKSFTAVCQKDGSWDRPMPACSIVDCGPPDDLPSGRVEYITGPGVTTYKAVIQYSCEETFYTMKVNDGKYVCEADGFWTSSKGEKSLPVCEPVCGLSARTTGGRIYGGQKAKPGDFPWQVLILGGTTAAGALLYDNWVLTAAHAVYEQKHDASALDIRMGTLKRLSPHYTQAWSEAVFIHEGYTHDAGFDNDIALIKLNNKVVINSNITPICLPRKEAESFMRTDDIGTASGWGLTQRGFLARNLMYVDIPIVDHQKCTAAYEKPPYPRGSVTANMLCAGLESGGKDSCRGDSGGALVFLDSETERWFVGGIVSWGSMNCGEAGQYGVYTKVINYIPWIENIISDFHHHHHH

[2] = target: T1, Recombinant human MASP1 enzyme (fragment corresponding to amino acids 297-699, C-terminal His Tag) (human, UniProt P48740 297-699); assay: cell-based or functional assay
T1 sequence: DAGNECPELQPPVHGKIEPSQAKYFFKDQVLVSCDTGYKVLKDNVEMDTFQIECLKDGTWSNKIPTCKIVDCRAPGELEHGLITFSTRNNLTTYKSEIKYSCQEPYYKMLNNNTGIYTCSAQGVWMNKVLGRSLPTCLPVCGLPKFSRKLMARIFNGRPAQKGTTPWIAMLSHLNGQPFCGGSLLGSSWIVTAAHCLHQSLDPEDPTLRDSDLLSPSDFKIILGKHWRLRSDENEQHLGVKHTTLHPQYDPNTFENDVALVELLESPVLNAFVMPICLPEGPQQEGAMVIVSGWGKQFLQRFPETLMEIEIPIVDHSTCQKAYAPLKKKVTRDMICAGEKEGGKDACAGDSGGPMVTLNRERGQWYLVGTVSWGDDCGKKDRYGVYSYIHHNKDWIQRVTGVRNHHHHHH

B1: (Dab)-IC+SRS-((tBu)A)-PPI-(Pen)+IP-NH2 (peptide)
peptide: [Dab]ICSRS[tBuAla]PPI[Pen]IP-NH2
modifications: disulfide 3-11; N-terminus assumed
SMILES: CC[C@H](C)[C@H](NC(=O)[C@@H](N)CCN)C(=O)N[C@H]1CSSC(C)(C)[C@@H](C(=O)N[C@H](C(=O)N2CCC[C@H]2C(N)=O)[C@@H](C)CC)NC(=O)[C@H]([C@@H](C)CC)NC(=O)[C@@H]2CCCN2C(=O)[C@@H]2CCCN2C(=O)[C@H](CC(C)(C)C)NC(=O)[C@H](CO)NC(=O)[C@H](CCCNC(=N)N)NC(=O)[C@H](CO)NC1=O
human MASP2 IC50 [1]: 64 nM
human MASP1 IC50 [2]: 4 nM

B2: (Abu)-IC+SRSLPP-(Chg)-C+IPD-NH2 (peptide)
peptide: [Abu]ICSRSLPP[Chg]CIPD-NH2
modifications: disulfide 3-11; N-terminus assumed
SMILES: CC[C@H](N)C(=O)N[C@H](C(=O)N[C@H]1CSSC[C@@H](C(=O)N[C@H](C(=O)N2CCC[C@H]2C(=O)N[C@@H](CC(=O)O)C(N)=O)[C@@H](C)CC)NC(=O)[C@H](C2CCCCC2)NC(=O)[C@@H]2CCCN2C(=O)[C@@H]2CCCN2C(=O)[C@H](CC(C)C)NC(=O)[C@H](CO)NC(=O)[C@H](CCCNC(=N)N)NC(=O)[C@H](CO)NC1=O)[C@@H](C)CC
human MASP2 IC50 [1]: 52 nM
human MASP1 IC50 [2]: 4.25 nM

B4: ((N-Me)G)-IC+SRSLP-(Oic)-I-(Pen)+IPE-NH2 (peptide)
peptide: [Sar]ICSRSLP[Oic]I[Pen]IPE-NH2
modifications: disulfide 3-11; N-terminus assumed
SMILES: CC[C@H](C)[C@H](NC(=O)CNC)C(=O)N[C@H]1CSSC(C)(C)[C@@H](C(=O)N[C@H](C(=O)N2CCC[C@H]2C(=O)N[C@@H](CCC(=O)O)C(N)=O)[C@@H](C)CC)NC(=O)[C@H]([C@@H](C)CC)NC(=O)[C@@H]2C[C@@H]3CCCC[C@@H]3N2C(=O)[C@@H]2CCCN2C(=O)[C@H](CC(C)C)NC(=O)[C@H](CO)NC(=O)[C@H](CCCNC(=N)N)NC(=O)[C@H](CO)NC1=O
human MASP2 IC50 [1]: 200 nM
human MASP1 IC50 [2]: 4.3 nM

Binder: [Sar]ICSRSLP[Oic]I[Pen]I[5‑Azaspiro(2.4)heptane‑1‑carboxylic acid]-OH (disulfide 3-11) [((N-Me)G)-IC+SRSLP-(Oic)-I-(Pen)+I-((5-Azaspiro[2.4]heptane-1-carboxylic acid)-OH]
human MASP2 IC50 [1]: 57 nM
human MASP1 IC50 [2]: 4 nM

B6: ((N-Me)A)-IC+SRSLP-(Oic)-I-(Pen)+IPD-OH (peptide)
peptide: [NMeA]ICSRSLP[Oic]I[Pen]IPD-OH
modifications: disulfide 3-11; N-terminus assumed
SMILES: CC[C@H](C)[C@H](NC(=O)[C@H](C)NC)C(=O)N[C@H]1CSSC(C)(C)[C@@H](C(=O)N[C@H](C(=O)N2CCC[C@H]2C(=O)N[C@@H](CC(=O)O)C(=O)O)[C@@H](C)CC)NC(=O)[C@H]([C@@H](C)CC)NC(=O)[C@@H]2C[C@@H]3CCCC[C@@H]3N2C(=O)[C@@H]2CCCN2C(=O)[C@H](CC(C)C)NC(=O)[C@H](CO)NC(=O)[C@H](CCCNC(=N)N)NC(=O)[C@H](CO)NC1=O
human MASP2 IC50 [1]: 160 nM
human MASP1 IC50 [2]: 3.9 nM

B8: ((N-Me)G)-IC+SRSLP-(Oic)-I-(Pen)+IP-OH (peptide)
peptide: [Sar]ICSRSLP[Oic]I[Pen]IP-OH
modifications: disulfide 3-11; N-terminus assumed
SMILES: CC[C@H](C)[C@H](NC(=O)CNC)C(=O)N[C@H]1CSSC(C)(C)[C@@H](C(=O)N[C@H](C(=O)N2CCC[C@H]2C(=O)O)[C@@H](C)CC)NC(=O)[C@H]([C@@H](C)CC)NC(=O)[C@@H]2C[C@@H]3CCCC[C@@H]3N2C(=O)[C@@H]2CCCN2C(=O)[C@H](CC(C)C)NC(=O)[C@H](CO)NC(=O)[C@H](CCCNC(=N)N)NC(=O)[C@H](CO)NC1=O
human MASP2 IC50 [1]: 230 nM
human MASP1 IC50 [2]: 4.2 nM

B10: ((N-Me)A)-IC+SRSLP-(Oic)-I-(Pen)+IPE-OH (peptide)
peptide: [NMeA]ICSRSLP[Oic]I[Pen]IPE-OH
modifications: disulfide 3-11; N-terminus assumed
SMILES: CC[C@H](C)[C@H](NC(=O)[C@H](C)NC)C(=O)N[C@H]1CSSC(C)(C)[C@@H](C(=O)N[C@H](C(=O)N2CCC[C@H]2C(=O)N[C@@H](CCC(=O)O)C(=O)O)[C@@H](C)CC)NC(=O)[C@H]([C@@H](C)CC)NC(=O)[C@@H]2C[C@@H]3CCCC[C@@H]3N2C(=O)[C@@H]2CCCN2C(=O)[C@H](CC(C)C)NC(=O)[C@H](CO)NC(=O)[C@H](CCCNC(=N)N)NC(=O)[C@H](CO)NC1=O
human MASP2 IC50 [1]: 170 nM
human MASP1 IC50 [2]: 3.9 nM

B11: ((N-Me)G)-IC+SRS-((tBu)A)-PPI-(Pen)+IP-(PEG3(16atoms))-NH2 (peptide)
peptide: [Sar]ICSRS[tBuAla]PPI[Pen]IP[PEG4]-NH2
modifications: disulfide 3-11; N-terminus assumed
SMILES: CC[C@H](C)[C@H](NC(=O)CNC)C(=O)N[C@H]1CSSC(C)(C)[C@@H](C(=O)N[C@H](C(=O)N2CCC[C@H]2C(=O)NCCOCCOCCOCCOCCC(N)=O)[C@@H](C)CC)NC(=O)[C@H]([C@@H](C)CC)NC(=O)[C@@H]2CCCN2C(=O)[C@@H]2CCCN2C(=O)[C@H](CC(C)(C)C)NC(=O)[C@H](CO)NC(=O)[C@H](CCCNC(=N)N)NC(=O)[C@H](CO)NC1=O
human MASP2 IC50 [1]: 65.5 nM
human MASP1 IC50 [2]: 4.35 nM

B12: ((N-Me)G)-IC+SRSLP-(Oic)-I-(Pen)+IPD-NH2 (peptide)
peptide: [Sar]ICSRSLP[Oic]I[Pen]IPD-NH2
modifications: disulfide 3-11; N-terminus assumed
SMILES: CC[C@H](C)[C@H](NC(=O)CNC)C(=O)N[C@H]1CSSC(C)(C)[C@@H](C(=O)N[C@H](C(=O)N2CCC[C@H]2C(=O)N[C@@H](CC(=O)O)C(N)=O)[C@@H](C)CC)NC(=O)[C@H]([C@@H](C)CC)NC(=O)[C@@H]2C[C@@H]3CCCC[C@@H]3N2C(=O)[C@@H]2CCCN2C(=O)[C@H](CC(C)C)NC(=O)[C@H](CO)NC(=O)[C@H](CCCNC(=N)N)NC(=O)[C@H](CO)NC1=O
human MASP2 IC50 [1]: 150 nM
human MASP1 IC50 [2]: 4.05 nM

More lines, now with the values ahead:

human MASP2 IC50 [1]: 240 nM
human MASP1 IC50 [2]: 4.4 nM
Binder: AICSRS[tBuAla]P[(2S,3aS,6aS)‑Octahydrocyclopenta(b)pyrrole‑2‑carboxylic acid]I[NMeC]IPD-NH2 (disulfide 3-11)

human MASP2 IC50 [1]: 170 nM
human MASP1 IC50 [2]: 3.9 nM
B3: AIC+SRSLP-(Oic)-I-((N-Me)C)+I-NH2 (peptide)
peptide: AICSRSLP[Oic]I[NMeC]I-NH2
modifications: disulfide 3-11; N-terminus assumed
SMILES: CC[C@H](C)[C@H](NC(=O)[C@@H]1CSSC[C@H](NC(=O)[C@@H](NC(=O)[C@H](C)N)[C@@H](C)CC)C(=O)N[C@@H](CO)C(=O)N[C@@H](CCCNC(=N)N)C(=O)N[C@@H](CO)C(=O)N[C@@H](CC(C)C)C(=O)N2CCC[C@H]2C(=O)N2[C@@H](C[C@@H]3CCCC[C@@H]32)C(=O)N[C@@H]([C@@H](C)CC)C(=O)N1C)C(N)=O

human MASP2 IC50 [1]: 59 nM
human MASP1 IC50 [2]: 4.3 nM
B5: aIC+SRSLP-(Oic)-I-(Pen)+IP-NH2 (peptide)
peptide: [dA]ICSRSLP[Oic]I[Pen]IP-NH2
modifications: disulfide 3-11; N-terminus assumed
SMILES: CC[C@H](C)[C@H](NC(=O)[C@@H](C)N)C(=O)N[C@H]1CSSC(C)(C)[C@@H](C(=O)N[C@H](C(=O)N2CCC[C@H]2C(N)=O)[C@@H](C)CC)NC(=O)[C@H]([C@@H](C)CC)NC(=O)[C@@H]2C[C@@H]3CCCC[C@@H]3N2C(=O)[C@@H]2CCCN2C(=O)[C@H](CC(C)C)NC(=O)[C@H](CO)NC(=O)[C@H](CCCNC(=N)N)NC(=O)[C@H](CO)NC1=O

human MASP2 IC50 [1]: 68 nM
human MASP1 IC50 [2]: 4.3 nM
B7: AIC+SRSLPPI-(Pen)+IPD-NH2 (peptide)
peptide: AICSRSLPPI[Pen]IPD-NH2
modifications: disulfide 3-11; N-terminus assumed
SMILES: CC[C@H](C)[C@H](NC(=O)[C@H](C)N)C(=O)N[C@H]1CSSC(C)(C)[C@@H](C(=O)N[C@H](C(=O)N2CCC[C@H]2C(=O)N[C@@H](CC(=O)O)C(N)=O)[C@@H](C)CC)NC(=O)[C@H]([C@@H](C)CC)NC(=O)[C@@H]2CCCN2C(=O)[C@@H]2CCCN2C(=O)[C@H](CC(C)C)NC(=O)[C@H](CO)NC(=O)[C@H](CCCNC(=N)N)NC(=O)[C@H](CO)NC1=O

human MASP2 IC50 [1]: 930 nM
human MASP1 IC50 [2]: 3.9 nM
B9: AIC+SRS-((tBu)A)-P-((4-CF3)P)-IC+IPD-NH2 (peptide)
peptide: AICSRS[tBuAla]P[Pro(cis-4-CF3)]ICIPD-NH2
modifications: disulfide 3-11; N-terminus assumed
SMILES: CC[C@H](C)[C@H](NC(=O)[C@H](C)N)C(=O)N[C@H]1CSSC[C@@H](C(=O)N[C@H](C(=O)N2CCC[C@H]2C(=O)N[C@@H](CC(=O)O)C(N)=O)[C@@H](C)CC)NC(=O)[C@H]([C@@H](C)CC)NC(=O)[C@@H]2C[C@H](C(F)(F)F)CN2C(=O)[C@@H]2CCCN2C(=O)[C@H](CC(C)(C)C)NC(=O)[C@H](CO)NC(=O)[C@H](CCCNC(=N)N)NC(=O)[C@H](CO)NC1=O

human MASP2 IC50 [1]: 30 nM
human MASP1 IC50 [2]: 4.3 nM
Binder: AICSRS[tBuAla]PPI[Pen]IP[Tranexamic]-NH2 (disulfide 3-11) [AIC+SRS-((tBu)A)-PPI-(Pen)+IP-(Tranexamic)-NH2]

human MASP2 IC50 [1]: 100 nM
human MASP1 IC50 [2]: 3.9 nM
B13: aIC+SRSLP-(Oic)-I-(Pen)+I-NH2 (peptide)
peptide: [dA]ICSRSLP[Oic]I[Pen]I-NH2
modifications: disulfide 3-11; N-terminus assumed
SMILES: CC[C@H](C)[C@H](NC(=O)[C@H]1NC(=O)[C@H]([C@@H](C)CC)NC(=O)[C@@H]2C[C@@H]3CCCC[C@@H]3N2C(=O)[C@@H]2CCCN2C(=O)[C@H](CC(C)C)NC(=O)[C@H](CO)NC(=O)[C@H](CCCNC(=N)N)NC(=O)[C@H](CO)NC(=O)[C@@H](NC(=O)[C@@H](NC(=O)[C@@H](C)N)[C@@H](C)CC)CSSC1(C)C)C(N)=O
